Results taken from US20160009768A1.

Target: elongation factor-2 (EF-2) (rabbit) (UniProt P55823)
Test: cell-based or functional assay

Substance	inhibition of transcription/translation of T7-luc plasmid in IVTT
DT382 (G53E): Null construct (from UniProt P00587 26-406) (enzyme)	20%
wild type DT382 (from UniProt P00587 26-406) (enzyme)	90%
